# Laboratory results as given in article PMC9976902, “Interaction of human HelQ with DNA polymerase delta halts DNA synthesis and stimulates DNA single-strand annealing” (Nucleic Acids Research, 2022).
# T1: HelQ (human, UniProt Q8TDG4 1-1101)
# T1 sequence: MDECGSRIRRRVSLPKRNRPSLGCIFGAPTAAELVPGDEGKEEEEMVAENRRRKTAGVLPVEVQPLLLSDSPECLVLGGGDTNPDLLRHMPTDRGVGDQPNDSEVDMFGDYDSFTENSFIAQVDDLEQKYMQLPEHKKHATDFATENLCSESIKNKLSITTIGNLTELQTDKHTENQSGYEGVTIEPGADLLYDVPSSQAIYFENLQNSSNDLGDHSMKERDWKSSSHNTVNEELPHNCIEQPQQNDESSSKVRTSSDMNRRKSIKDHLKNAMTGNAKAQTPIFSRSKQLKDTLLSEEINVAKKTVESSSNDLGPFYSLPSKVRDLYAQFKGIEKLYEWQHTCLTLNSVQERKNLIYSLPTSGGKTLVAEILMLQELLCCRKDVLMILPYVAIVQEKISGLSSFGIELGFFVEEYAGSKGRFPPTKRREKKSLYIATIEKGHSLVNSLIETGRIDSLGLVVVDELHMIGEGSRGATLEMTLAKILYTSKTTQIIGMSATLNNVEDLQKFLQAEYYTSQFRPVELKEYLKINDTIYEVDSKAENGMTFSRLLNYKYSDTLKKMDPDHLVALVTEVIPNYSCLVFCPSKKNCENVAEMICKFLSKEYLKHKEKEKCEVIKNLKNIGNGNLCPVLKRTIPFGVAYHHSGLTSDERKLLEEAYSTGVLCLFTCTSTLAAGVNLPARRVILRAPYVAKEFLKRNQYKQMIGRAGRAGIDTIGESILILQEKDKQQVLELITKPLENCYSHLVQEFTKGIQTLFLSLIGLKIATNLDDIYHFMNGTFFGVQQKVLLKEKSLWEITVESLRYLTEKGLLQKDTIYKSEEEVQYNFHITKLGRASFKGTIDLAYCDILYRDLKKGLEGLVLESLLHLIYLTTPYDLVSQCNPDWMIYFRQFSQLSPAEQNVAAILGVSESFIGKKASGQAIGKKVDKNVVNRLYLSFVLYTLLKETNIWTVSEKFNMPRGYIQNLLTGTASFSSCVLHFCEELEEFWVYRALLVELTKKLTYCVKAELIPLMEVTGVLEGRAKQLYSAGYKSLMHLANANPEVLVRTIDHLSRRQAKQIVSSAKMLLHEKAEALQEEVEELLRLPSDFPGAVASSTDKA
# T2: human Pol δ sub-unit POLD3, purified individually (human, UniProt Q15054 1-466)
# T2 sequence (looked up): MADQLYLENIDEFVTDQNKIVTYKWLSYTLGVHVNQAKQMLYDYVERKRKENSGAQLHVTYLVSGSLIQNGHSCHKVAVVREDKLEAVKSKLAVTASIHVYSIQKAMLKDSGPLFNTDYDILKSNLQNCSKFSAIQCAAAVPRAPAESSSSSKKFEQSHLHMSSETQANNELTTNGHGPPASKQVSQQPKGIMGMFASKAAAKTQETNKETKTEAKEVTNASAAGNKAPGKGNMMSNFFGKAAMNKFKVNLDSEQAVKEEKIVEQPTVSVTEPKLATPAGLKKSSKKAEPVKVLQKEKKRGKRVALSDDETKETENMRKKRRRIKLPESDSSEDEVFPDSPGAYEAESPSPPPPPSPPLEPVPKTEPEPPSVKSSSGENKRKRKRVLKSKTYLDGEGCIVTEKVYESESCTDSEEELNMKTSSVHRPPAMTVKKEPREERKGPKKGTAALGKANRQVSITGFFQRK
# B1: forked DNA (MW12/MW14) (dsDNA)
# DNA 1: GTCGGATCCTCTAGACAGCTCCATGATCACTGGCACTGGTAGAATTCGGC
# DNA 2: CAACGTCATAGACGATTACATTGCTACATGGAGCTGTCTAGAGGATCCGA
# B2: N-HelQ R51G/R52G/R53G (domain or fragment)
# chain: MDECGSRIRRRVSLPKRNRPSLGCIFGAPTAAELVPGDEGKEEEEMVAENGGGKTAGVLPVEVQPLLLSDSPECLVLGGGDTNPDLLRHMPTDRGVGDQPNDSEVDMFGDYDSFTENSFIAQVDDLEQKYMQLPEHKKHATDFATENLCSESIKNKLSITTIGNLTELQTDKHTENQSGYEGVTIEPGADLLYDVPSSQAIYFENLQNSSNDLGDHSMKERDWKSSSHNTVNEELPHNCIE
# B3: Human HelQ (enzyme, UniProt Q8TDG4 1-1101, looked up)
# chain: T1 sequence
# How the values were obtained:
# [1] = target: T1, HelQ; assay: EMSA; 50 mM EDTA; HelQ 100-400 nM, DNA 15 nM; EMSA: 20 mM Tris-HCl pH 7.5, 100 mg/ml BSA (so in the source), 7% glycerol, 25 mM DTT, 50 mM EDTA, 25 nM DNA (Methods; 15 nM in legend), 37 C 10 min, 5% TBE gel; conditions: protein: recombinant; label: Cy5 end label; fork 1:2-25 paired with 2:27-50; 3' tail 25 nt (strand 1), 5' tail 26 nt (strand 2), 1 nt 5' overhang on strand 1
# [2] = target: T3, human DNA polymerase δ complex (PolD1-4) (human, UniProt P28340 1-1107; P49005 1-469; Q15054 1-466; Q9HCU8 1-107)
# T3 sequence (P28340 whole entry, stated change not applied, chain 1 of 3): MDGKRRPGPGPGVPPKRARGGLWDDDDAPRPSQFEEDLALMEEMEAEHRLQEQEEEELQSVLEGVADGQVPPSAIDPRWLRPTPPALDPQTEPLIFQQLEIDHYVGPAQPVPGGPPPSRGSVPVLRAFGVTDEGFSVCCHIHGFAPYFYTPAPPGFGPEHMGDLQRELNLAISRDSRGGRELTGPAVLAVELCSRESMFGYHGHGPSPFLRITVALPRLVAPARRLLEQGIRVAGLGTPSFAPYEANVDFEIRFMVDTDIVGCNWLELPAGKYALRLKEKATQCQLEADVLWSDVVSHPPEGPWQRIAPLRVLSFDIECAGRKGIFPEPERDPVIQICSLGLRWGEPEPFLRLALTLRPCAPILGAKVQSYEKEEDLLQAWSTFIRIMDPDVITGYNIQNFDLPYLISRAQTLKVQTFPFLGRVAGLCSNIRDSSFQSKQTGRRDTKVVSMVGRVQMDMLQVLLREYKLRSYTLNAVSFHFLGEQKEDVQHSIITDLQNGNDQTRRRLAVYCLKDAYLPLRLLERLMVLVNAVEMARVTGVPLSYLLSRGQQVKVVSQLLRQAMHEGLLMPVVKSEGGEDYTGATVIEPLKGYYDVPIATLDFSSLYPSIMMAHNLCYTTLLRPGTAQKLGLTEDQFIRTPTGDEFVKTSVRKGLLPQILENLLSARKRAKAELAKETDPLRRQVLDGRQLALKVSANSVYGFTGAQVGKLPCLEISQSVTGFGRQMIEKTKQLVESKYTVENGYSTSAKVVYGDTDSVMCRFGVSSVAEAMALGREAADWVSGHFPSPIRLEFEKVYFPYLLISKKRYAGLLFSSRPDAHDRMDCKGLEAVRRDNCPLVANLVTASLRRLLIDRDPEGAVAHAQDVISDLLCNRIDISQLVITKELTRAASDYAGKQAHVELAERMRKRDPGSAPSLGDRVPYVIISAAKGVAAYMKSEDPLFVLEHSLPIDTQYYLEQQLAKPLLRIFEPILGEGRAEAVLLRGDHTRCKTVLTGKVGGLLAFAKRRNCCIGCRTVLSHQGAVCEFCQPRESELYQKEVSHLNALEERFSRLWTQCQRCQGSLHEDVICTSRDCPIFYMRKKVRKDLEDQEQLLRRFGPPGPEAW
# T3 sequence (P49005 whole entry, stated change not applied, chain 2 of 3): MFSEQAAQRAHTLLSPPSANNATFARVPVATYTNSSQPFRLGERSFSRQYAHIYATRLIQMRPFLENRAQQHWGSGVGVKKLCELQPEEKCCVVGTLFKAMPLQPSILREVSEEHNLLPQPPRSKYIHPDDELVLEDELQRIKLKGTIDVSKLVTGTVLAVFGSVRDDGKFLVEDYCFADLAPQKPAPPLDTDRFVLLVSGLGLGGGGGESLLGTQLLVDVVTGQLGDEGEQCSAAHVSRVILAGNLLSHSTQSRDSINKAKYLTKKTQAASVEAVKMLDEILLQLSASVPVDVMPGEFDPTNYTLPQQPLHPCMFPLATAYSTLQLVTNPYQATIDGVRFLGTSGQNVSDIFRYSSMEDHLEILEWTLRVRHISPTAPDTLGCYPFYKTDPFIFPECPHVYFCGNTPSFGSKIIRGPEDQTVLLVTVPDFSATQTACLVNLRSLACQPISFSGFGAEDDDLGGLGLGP
# T3 sequence (Q9HCU8 whole entry, stated change not applied, chain 4 of 3): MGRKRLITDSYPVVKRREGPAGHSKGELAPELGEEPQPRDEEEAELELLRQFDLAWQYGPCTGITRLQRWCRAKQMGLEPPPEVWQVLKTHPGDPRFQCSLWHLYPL
# [3] = target: T2, human Pol δ sub-unit POLD3, purified …; assay: cell-based or functional assay
# [4] = target: T3, human DNA polymerase δ complex (PolD1-4); assay: cell-based or functional assay
binder,measurement,setting,value
B1,binding result,[1],binds
B2,"end point of DNA synthesis by Pol δ (40 nM) pre-mixed with N-HelQ^RGx3 (5 nM), percent of DNA as product (68.8% uninhibited)",[2],12.7%
B3,"FRET efficiency of DNA single-strand annealing by HelQ (125 nM) with POLD3 alone (150 nM) added; 0.50 without POLD3, 0.07 with POLD3 alone",[3],0.87 FRET ratio
same,FRET ratio of DNA single-strand annealing by HelQ (125 nM) with Pol δ complex (150 nM) added; 0.51 without Pol δ,[4],0.76 FRET ratio
